Measurements published in publication PMC11463774, “Structure of the Nmd4-Upf1 complex supports conservation of the nonsense-mediated mRNA decay pathway between yeast and humans” (PLOS Biology, 2024).

T1: Upf1-HD-His6 (S. cerevisiae Upf1 helicase domain, residues 221 to 851) (S. cerevisiae, UniProt P30771 221-851)
T1 construct: Upf1, S. cerevisiae, helicase domain, residues 221 to 851; Used in ITC and, by the buffer D200 preparation, in the ATPase assays; also called yeast Upf1 helicase domain; source: E. coli BL21 (DE3) Gold, purified (TALON, HiTrap Heparin, S200 SEC); not shown: His6, C-terminal, kept
T1 sequence (looked up): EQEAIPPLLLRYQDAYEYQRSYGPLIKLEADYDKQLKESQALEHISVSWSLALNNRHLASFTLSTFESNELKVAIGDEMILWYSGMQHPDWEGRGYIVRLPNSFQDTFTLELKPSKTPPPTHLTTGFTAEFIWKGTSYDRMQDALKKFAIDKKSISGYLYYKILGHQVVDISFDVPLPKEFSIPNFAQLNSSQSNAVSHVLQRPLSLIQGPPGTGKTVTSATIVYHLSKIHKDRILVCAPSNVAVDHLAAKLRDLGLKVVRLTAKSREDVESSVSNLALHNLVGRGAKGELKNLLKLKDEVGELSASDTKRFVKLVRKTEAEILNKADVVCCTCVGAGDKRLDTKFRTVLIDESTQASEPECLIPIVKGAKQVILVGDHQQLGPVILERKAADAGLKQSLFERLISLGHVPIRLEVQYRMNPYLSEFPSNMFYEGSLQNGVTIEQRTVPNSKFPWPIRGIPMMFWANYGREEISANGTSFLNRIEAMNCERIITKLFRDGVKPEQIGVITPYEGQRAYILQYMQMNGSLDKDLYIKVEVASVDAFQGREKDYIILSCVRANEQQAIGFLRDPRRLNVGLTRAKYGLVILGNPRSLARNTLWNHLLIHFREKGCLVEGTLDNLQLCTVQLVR

T2: Upf1-HD-His6 (Saccharomyces cerevisiae, UniProt P30771 221-851)
T2 sequence: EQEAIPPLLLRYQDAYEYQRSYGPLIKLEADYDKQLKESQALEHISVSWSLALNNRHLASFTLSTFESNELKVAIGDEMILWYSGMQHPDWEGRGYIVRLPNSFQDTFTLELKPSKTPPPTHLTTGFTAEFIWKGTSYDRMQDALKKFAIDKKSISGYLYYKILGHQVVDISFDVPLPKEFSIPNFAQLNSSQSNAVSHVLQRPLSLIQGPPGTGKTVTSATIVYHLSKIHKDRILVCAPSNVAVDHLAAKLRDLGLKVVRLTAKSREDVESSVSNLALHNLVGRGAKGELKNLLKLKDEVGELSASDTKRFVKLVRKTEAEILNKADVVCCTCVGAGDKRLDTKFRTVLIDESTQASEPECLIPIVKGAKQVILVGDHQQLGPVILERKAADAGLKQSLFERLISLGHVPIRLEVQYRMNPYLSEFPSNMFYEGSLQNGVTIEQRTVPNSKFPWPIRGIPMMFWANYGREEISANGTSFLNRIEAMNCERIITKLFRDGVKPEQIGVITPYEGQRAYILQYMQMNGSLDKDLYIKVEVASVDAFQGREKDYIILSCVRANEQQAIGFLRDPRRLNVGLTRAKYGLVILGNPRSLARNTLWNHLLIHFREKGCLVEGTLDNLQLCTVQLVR

T3: His6-ZZ-Nmd4 FL (Saccharomyces cerevisiae, UniProt Q12129 1-218)
T3 sequence: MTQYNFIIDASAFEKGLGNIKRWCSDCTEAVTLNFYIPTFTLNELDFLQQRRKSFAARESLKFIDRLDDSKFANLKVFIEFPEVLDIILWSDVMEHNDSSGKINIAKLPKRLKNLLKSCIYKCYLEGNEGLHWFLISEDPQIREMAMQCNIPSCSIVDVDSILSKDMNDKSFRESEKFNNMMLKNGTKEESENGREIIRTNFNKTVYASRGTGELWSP

T4: His6-ZZ-Nmd4 FL;Upf1-HD-His6 (Saccharomyces cerevisiae;Saccharomyces …, UniProt Q12129;P30771 1-218;221-851, |)
T4 sequence 1: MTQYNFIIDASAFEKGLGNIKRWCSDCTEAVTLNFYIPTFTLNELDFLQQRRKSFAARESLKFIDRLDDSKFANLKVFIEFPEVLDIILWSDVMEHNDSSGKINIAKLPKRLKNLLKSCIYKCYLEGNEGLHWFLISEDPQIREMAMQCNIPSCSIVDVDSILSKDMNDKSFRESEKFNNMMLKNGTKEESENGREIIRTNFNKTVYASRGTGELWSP
T4 sequence 2: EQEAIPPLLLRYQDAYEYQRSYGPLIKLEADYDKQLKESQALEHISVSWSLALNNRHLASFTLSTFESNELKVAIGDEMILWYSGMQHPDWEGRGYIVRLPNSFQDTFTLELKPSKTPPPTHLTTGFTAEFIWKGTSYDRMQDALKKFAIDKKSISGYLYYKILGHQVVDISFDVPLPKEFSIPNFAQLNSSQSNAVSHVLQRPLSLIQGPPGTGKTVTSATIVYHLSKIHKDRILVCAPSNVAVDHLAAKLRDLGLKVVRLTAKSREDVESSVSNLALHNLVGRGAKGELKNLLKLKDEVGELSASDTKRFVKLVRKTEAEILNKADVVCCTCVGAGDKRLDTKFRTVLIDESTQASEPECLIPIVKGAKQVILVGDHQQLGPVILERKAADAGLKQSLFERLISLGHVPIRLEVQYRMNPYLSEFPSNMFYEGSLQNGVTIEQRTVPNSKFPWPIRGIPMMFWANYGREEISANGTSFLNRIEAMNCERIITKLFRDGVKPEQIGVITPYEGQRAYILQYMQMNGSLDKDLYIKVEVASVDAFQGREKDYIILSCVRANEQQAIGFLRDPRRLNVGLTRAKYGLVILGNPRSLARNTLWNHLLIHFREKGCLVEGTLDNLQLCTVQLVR

B1: His6-ZZ-Nmd4 « arm » (residues 168 to 218) (domain or fragment, S. cerevisiae, UniProt Q12129 168-218, looked up)
chain: NDKSFRESEKFNNMMLKNGTKEESENGREIIRTNFNKTVYASRGTGELWSP
notes: Nmd4, S. cerevisiae, C-terminal « arm », residues 168 to 218; also called « arm » region; source: E. coli BL21 (DE3) Gold, purified; not shown: His6, N-terminal, kept; ZZ (tandem Z-domain of S. aureus protein A), N-terminal, kept
B2: His6-ZZ-Nmd4 full-length protein (S. cerevisiae) (natural protein, UniProt Q12129 1-218, looked up)
chain: MTQYNFIIDASAFEKGLGNIKRWCSDCTEAVTLNFYIPTFTLNELDFLQQRRKSFAARESLKFIDRLDDSKFANLKVFIEFPEVLDIILWSDVMEHNDSSGKINIAKLPKRLKNLLKSCIYKCYLEGNEGLHWFLISEDPQIREMAMQCNIPSCSIVDVDSILSKDMNDKSFRESEKFNNMMLKNGTKEESENGREIIRTNFNKTVYASRGTGELWSP
notes: also called His6-ZZ-Nmd4 FL; full-length Nmd4; source: E. coli BL21 (DE3) Gold, purified (Ni-NTA, HiTrap Heparin, S75 SEC); not shown: His6, N-terminal, kept; ZZ (tandem Z-domain of S. aureus protein A), N-terminal, kept

Assays:
[1] = molecular target: T1, Upf1-HD-His6 (S. cerevisiae Upf1 …); test: ITC; His6-ZZ-Nmd4 proteins (260 μM full-length and « arm », 330 μM PIN) or His6-ZZ (277 μM) injected into Upf1-HD-His6 (30 to 35 μM); 20°C; 100 mM Bis-Tris pH 6.5, 200 mM NaCl, 5 mM MgCl2, 5 mM 2-mercaptoethanol; one-binding-site model; details: both partners purified
[2] = molecular target: T2, Upf1-HD-His6; test: ITC; no nucleotide; 5 mM Mg2+; ITC: 100 mM Bis-Tris pH 6.5, 133 mM NaCl, 5 mM MgCl2, 5 mM 2-mercaptoethanol, 20 C; protein 20-30 uM in cell titrated with 230-280 uM RNA; details: protein: recombinant; tags: C-terminal His6; single strand
[3] = molecular target: T3, His6-ZZ-Nmd4 FL; test: ITC; 5 mM Mg2+; ITC: 100 mM Bis-Tris pH 6.5, 133 mM NaCl, 5 mM MgCl2, 5 mM 2-mercaptoethanol, 20 C; protein 20-30 uM in cell titrated with 230-280 uM RNA; details: protein: recombinant; tags: N-terminal His6-ZZ (3C cleavable, kept for ITC); single strand
[4] = molecular target: T4, His6-ZZ-Nmd4 FL;Upf1-HD-His6; test: ITC; preformed Nmd4/Upf1-HD complex; no nucleotide; 5 mM Mg2+; n 0.47; ITC: 100 mM Bis-Tris pH 6.5, 133 mM NaCl, 5 mM MgCl2, 5 mM 2-mercaptoethanol, 20 C; protein 20-30 uM in cell titrated with 230-280 uM RNA; details: protein: recombinant;recombinant; tags: N-terminal His6-ZZ (3C cleavable, kept for ITC);C-terminal His6; copies: 1;1; single strand

Row | Binder | Kd [1] | dH [1] | stoichiometry N [1] | Kd [2] | Kd [3] | Kd [4]
1 | B1 | 1960 nM | -12.4 kcal/mol | 0.98 |  |  | 
2 | UUUUUUUUUUUUUUUUUUUUUUUUUUUUUU (ssRNA) [RNA poly(U)30] |  |  |  | 1030 ± 280 nM | 8100 ± 2950 nM | 440 ± 210 nM
3 | B2 | 2100 nM | -14.8 kcal/mol | 1.08 |  |  | 
